Consider 13 molecules from patent US20180066035A1 (published 2018).

Experiment [1] addresses T1, human ICAM-1 on cells (HeLa, 8505C, 8505C/LPS, HMEC-1, T cells) (human, UniProt P05362 28-532).
T1 construct: whole, on cells
Description: estimated from titrated R6.5 antibody binding to HeLa cells.

Experiment [2] has as its target T2, human ICAM-1 (immobilized, SPR) (human, UniProt P05362 28-480, limits assumed).
T2 construct: Form immobilized on the SPR chip is not described; also called Intercellular adhesion molecule-1; CD54
Description: SPR, I domain over immobilized human ICAM-1.

The target in experiment [3] is T3, recombinant human ICAM-1 fused to human Fcγ (R&D Systems) (human, UniProt P05362 28-480).
T3 construct: Bought reagent; also called ICAM-1-Fc; human ICAM-1-Fcγ; not shown: human Fcγ
T3 sequence (P05362 28-480 limits assumed): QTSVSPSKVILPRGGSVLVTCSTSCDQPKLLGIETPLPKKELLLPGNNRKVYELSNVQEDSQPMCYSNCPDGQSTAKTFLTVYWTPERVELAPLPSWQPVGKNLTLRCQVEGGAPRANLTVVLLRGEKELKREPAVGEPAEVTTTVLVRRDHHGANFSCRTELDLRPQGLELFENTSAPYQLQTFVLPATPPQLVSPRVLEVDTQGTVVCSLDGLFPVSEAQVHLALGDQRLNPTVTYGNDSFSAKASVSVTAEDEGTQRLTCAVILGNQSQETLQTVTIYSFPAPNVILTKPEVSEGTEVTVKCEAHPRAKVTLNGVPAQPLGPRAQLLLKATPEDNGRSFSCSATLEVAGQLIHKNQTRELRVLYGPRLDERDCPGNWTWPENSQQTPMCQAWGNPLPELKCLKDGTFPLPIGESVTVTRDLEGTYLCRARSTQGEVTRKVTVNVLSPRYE
The experiment is described as follows: estimated from flow cytometry MFI of ICAM-1-Fc binding to yeast cells expressing the I domain variant.

Experiment [4] deals with murine ICAM-1 (SPR) (murine, UniProt P13597 28-485, limits assumed). The experiment is described as follows: SPR, F265S/F292G flowed over murine ICAM-1 (FIG. 1C).
Chain of murine ICAM-1 (SPR) (P13597 28-485 limits assumed): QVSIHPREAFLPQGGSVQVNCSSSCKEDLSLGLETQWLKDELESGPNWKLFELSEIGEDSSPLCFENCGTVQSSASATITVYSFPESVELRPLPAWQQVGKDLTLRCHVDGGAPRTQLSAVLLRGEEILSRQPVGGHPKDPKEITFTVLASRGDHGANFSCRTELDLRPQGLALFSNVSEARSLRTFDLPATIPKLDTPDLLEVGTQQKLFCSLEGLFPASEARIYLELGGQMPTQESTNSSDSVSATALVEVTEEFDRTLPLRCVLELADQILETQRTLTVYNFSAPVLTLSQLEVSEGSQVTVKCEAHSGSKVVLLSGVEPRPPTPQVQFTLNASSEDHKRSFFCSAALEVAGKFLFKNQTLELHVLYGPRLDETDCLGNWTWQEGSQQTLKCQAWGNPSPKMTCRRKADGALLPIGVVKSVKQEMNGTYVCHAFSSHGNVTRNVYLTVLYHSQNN
The target of experiment [5] is T2, human ICAM-1 (immobilized, SPR). The experiment is described as follows: SPR.
Experiment [6] has as its target murine ICAM-1 on bEnd.3 cells (mouse) (UniProt P13597). Description: cell-based or functional assay.
Experiment [7] deals with human ICAM-1 on cells (HeLa, 8505C, 8505C/LPS, HMEC-1, T cells) (human) (UniProt P05362). Description: cell-based or functional assay.
Chain of human ICAM-1 on cells (HeLa, 8505C, 8505C/LPS, HMEC-1, T cells) (human) (P05362 28-532): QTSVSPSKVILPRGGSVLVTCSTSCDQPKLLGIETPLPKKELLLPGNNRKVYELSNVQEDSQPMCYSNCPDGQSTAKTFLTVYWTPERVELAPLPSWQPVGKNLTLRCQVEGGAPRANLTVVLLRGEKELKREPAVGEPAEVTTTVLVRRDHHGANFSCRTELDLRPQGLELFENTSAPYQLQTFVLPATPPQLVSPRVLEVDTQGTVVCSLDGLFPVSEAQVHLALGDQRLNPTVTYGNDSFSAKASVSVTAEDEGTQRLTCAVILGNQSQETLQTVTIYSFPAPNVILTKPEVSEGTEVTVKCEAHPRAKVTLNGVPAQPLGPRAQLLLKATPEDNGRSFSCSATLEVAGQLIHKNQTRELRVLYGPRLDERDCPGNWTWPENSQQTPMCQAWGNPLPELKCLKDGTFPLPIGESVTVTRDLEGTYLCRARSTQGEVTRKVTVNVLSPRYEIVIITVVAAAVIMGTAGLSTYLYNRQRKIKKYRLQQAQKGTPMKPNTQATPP
Experiment [8] addresses T2, human ICAM-1 (immobilized, SPR). The experiment is described as follows: comparison of the Table 1 affinities.

T2 sequence (P05362 28-480 limits assumed): as the sequence (P05362 28-480 limits assumed) above
Chain of murine ICAM-1 on bEnd.3 cells (mouse) (P13597 28-537): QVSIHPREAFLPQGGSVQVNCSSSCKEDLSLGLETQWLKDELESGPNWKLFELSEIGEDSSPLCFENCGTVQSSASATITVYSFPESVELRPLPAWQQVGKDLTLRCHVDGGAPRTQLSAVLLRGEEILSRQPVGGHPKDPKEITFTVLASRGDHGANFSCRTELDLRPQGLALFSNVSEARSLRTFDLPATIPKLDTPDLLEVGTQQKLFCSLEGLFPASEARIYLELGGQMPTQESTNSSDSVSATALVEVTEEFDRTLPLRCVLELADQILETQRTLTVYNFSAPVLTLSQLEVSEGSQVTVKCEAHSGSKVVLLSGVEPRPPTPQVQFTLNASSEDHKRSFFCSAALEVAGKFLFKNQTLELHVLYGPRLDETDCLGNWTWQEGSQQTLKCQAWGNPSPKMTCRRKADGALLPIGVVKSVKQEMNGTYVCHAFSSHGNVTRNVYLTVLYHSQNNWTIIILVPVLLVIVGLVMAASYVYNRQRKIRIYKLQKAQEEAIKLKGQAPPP
T1 sequence (P05362 28-532): as the sequence (P05362 28-532) above

B1: R6.5 (mouse anti-human ICAM-1 monoclonal antibody from hybridoma; scFv derived from it) (antibody, V domains shown)
VH: QVQLQQSGPELVRPGVSVKISCKGSGYTFIDYAIHWVKESHAKSLEWIGVISAYSGDTNYNQKFKGKATMTVDKSSNTAYLELARLTSEDSAIYYCARGGWLLLSFDYWGQGTTLTVSS
VL: DVVMTQSPLSLPVSLGDQASISCRSSQSLVHSNGNNYLHWYLQKSGQAPKLLIYKVSNRFSGVPDRFSGSGSGTDFTLKISRVEAEDLGVYFCSQSTHVPLTFGGGTKLEIK
As for B1, the Kd in experiment [1] is 0.01 µM.

B2: Wild-type (WT) LFA-1 I domain (receptor)
chain: GNVDLVFLFDGSMSLQPDEFQKILDFMKDVMKKLSNTSYQFAAVQFSTSYKTEFDFSDYVKWKDPDALLKHVKHMLLLTNTFGAINYVATEVFREELGARPDATKVLIIITDGEATDSGNIDAAKDIIRYIIGIGKHFQTKESQETLHKFASKPASEFVKILDTFEKLKDLFTELQKKIYVIEG
notes: I domain of the αL subunit of human LFA-1; also called WT I domain; wild-type human I domain
As for B2, in experiment [2], binding was characterised by a dissociation constant (Kd) of 1500 µM.

B3: F292S LFA-1 I domain (receptor)
chain: GNVDLVFLFDGSMSLQPDEFQKILDFMKDVMKKLSNTSYQFAAVQFSTSYKTEFDFSDYVKWKDPDALLKHVKHMLLLTNTFGAINYVATEVFREELGARPDATKVLIIITDGEATDSGNIDAAKDIIRYIIGIGKHFQTKESQETLHKFASKPASEFVKILDTSEKLKDLFTELQKKIYVIEG
Turning to B3, the Kd in experiment [3] is 1.24 µM.

B4: F265S/F292G (DM) LFA-1 I domain (receptor)
chain: GNVDLVFLFDGSMSLQPDEFQKILDFMKDVMKKLSNTSYQFAAVQFSTSYKTEFDFSDYVKWKDPDALLKHVKHMLLLTNTFGAINYVATEVFREELGARPDATKVLIIITDGEATDSGNIDAAKDIIRYIIGIGKHSQTKESQETLHKFASKPASEFVKILDTGEKLKDLFTELQKKIYVIEG
As to B4, the figures for the Kd in experiment [4] and in experiment [2] were 0.002 µM and 0.006 µM, respectively. The “fold higher affinity than the wild-type (WT) I domain” value in experiment [5] is roughly 200000 fold.

B5: F292G LFA-1 I domain (receptor)
chain: GNVDLVFLFDGSMSLQPDEFQKILDFMKDVMKKLSNTSYQFAAVQFSTSYKTEFDFSDYVKWKDPDALLKHVKHMLLLTNTFGAINYVATEVFREELGARPDATKVLIIITDGEATDSGNIDAAKDIIRYIIGIGKHFQTKESQETLHKFASKPASEFVKILDTGEKLKDLFTELQKKIYVIEG
Turning to B5, the time (hours) to 50% killing, bEND3 target cells in experiment [6] was 16.2 h. Besides, in experiment [7], the time (hours) to 50% killing, 8505C target cells was determined as 27.3 h; the time (hours) to 50% killing, 8505C/LPS target cells came out at 24 h; the time (hours) to 50% killing, HMEC target cells amounted to 21.1 h; the time (hours) to 50% killing, HeLa target cells came out at 14.9 h. Besides, in experiment [2], the Kd came to 0.119 µM.

B6: I288N LFA-1 I domain (receptor)
chain: GNVDLVFLFDGSMSLQPDEFQKILDFMKDVMKKLSNTSYQFAAVQFSTSYKTEFDFSDYVKWKDPDALLKHVKHMLLLTNTFGAINYVATEVFREELGARPDATKVLIIITDGEATDSGNIDAAKDIIRYIIGIGKHFQTKESQETLHKFASKPASEFVKNLDTFEKLKDLFTELQKKIYVIEG
Consider B6, for which, in experiment [3], the Kd was 202 µM.

B7: I309T LFA-1 I domain (receptor)
chain: GNVDLVFLFDGSMSLQPDEFQKILDFMKDVMKKLSNTSYQFAAVQFSTSYKTEFDFSDYVKWKDPDALLKHVKHMLLLTNTFGAINYVATEVFREELGARPDATKVLIIITDGEATDSGNIDAAKDIIRYIIGIGKHFQTKESQETLHKFASKPASEFVKILDTFEKLKDLFTELQKKIYVTEG
For the molecule B7, the Kd in experiment [3] is 127 µM.

B8: F265S LFA-1 I domain (receptor)
chain: GNVDLVFLFDGSMSLQPDEFQKILDFMKDVMKKLSNTSYQFAAVQFSTSYKTEFDFSDYVKWKDPDALLKHVKHMLLLTNTFGAINYVATEVFREELGARPDATKVLIIITDGEATDSGNIDAAKDIIRYIIGIGKHSQTKESQETLHKFASKPASEFVKILDTFEKLKDLFTELQKKIYVIEG
In experiment [2], B8 came in with a Kd of 0.145 µM.

B9: F292A LFA-1 I domain (receptor)
chain: GNVDLVFLFDGSMSLQPDEFQKILDFMKDVMKKLSNTSYQFAAVQFSTSYKTEFDFSDYVKWKDPDALLKHVKHMLLLTNTFGAINYVATEVFREELGARPDATKVLIIITDGEATDSGNIDAAKDIIRYIIGIGKHFQTKESQETLHKFASKPASEFVKILDTAEKLKDLFTELQKKIYVIEG
Regarding B9, the fold lower affinity than the scFv-based R6.5 CAR in experiment [8] was greater than 1000 fold. In experiment [7], this molecule returned a time (hours) to 50% killing, 8505C target cells of 41.5 h; a time (hours) to 50% killing, 8505C/LPS target cells of 30.8 h; a time (hours) to 50% killing, HeLa target cells of 18.7 h. The molecule further came in with a Kd in experiment [2] of 20 µM.

B10: L289G LFA-1 I domain (receptor)
chain: GNVDLVFLFDGSMSLQPDEFQKILDFMKDVMKKLSNTSYQFAAVQFSTSYKTEFDFSDYVKWKDPDALLKHVKHMLLLTNTFGAINYVATEVFREELGARPDATKVLIIITDGEATDSGNIDAAKDIIRYIIGIGKHFQTKESQETLHKFASKPASEFVKIGDTFEKLKDLFTELQKKIYVIEG
For the molecule B10, in experiment [3], the Kd was 0.196 µM.

B11: L295A LFA-1 I domain (receptor)
chain: GNVDLVFLFDGSMSLQPDEFQKILDFMKDVMKKLSNTSYQFAAVQFSTSYKTEFDFSDYVKWKDPDALLKHVKHMLLLTNTFGAINYVATEVFREELGARPDATKVLIIITDGEATDSGNIDAAKDIIRYIIGIGKHFQTKESQETLHKFASKPASEFVKILDTFEKAKDLFTELQKKIYVIEG
Regarding B11, the equilibrium dissociation constant (Kd) in experiment [3] is 37 µM.

B12: TM (F265S/F292G/G311C) I domain CAR (receptor, part only; not given: Tag, hinge, transmembrane and signaling domains, not shown: another chain or arm of the molecule; a dimerising Fc or GST; small tags and cut ends)
chain: ECIKGNVDLVFLFDGSMSLQPDEFQKILDFMKDVMKKLSNTSYQFAAVQFSTSYKTEFDFSDYVKWKDPDALLKHVKHMLLLTNTFGAINYVATEVFREELGARPDATKVLIIITDGEATDSGNIDAAKDIIRYIIGIGKHSQTKESQETLHKFASKPASEFVKILDTGEKLKDLFTELQKKIYVIECTS
modifications: Disulfide bond between Cys-125 (chain position 2) and the introduced Cys-311 (chain position 188), per paragraph 45.
As to B12, the time (hours) to 50% killing, bEND3 target cells in experiment [6] was found to be 13 h. In experiment [7], this molecule showed a time (hours) to 50% killing, 8505C target cells of 17.1 h; a time (hours) to 50% killing, 8505C/-ICAM-1 target cells of 32.6 h; a time (hours) to 50% killing, 8505C/LPS target cells of 15.1 h; a time (hours) to 50% killing, HMEC target cells of 13.4 h. Besides, the time (hours) to 50% killing, HeLa target cells in experiment [7] was determined as 10.8 h.

B13: F265S/F292G/G311C (TM) LFA-1 I domain (receptor)
chain: ECIKGNVDLVFLFDGSMSLQPDEFQKILDFMKDVMKKLSNTSYQFAAVQFSTSYKTEFDFSDYVKWKDPDALLKHVKHMLLLTNTFGAINYVATEVFREELGARPDATKVLIIITDGEATDSGNIDAAKDIIRYIIGIGKHSQTKESQETLHKFASKPASEFVKILDTGEKLKDLFTELQKKIYVIECTS
modifications: disulfide bond between Cys-311 (G311C) and naturally unpaired Cys-125
notes: also called triple mutant
In the case of B13, the Kd in experiment [2] is roughly 0.001 µM.
